Experimental data taken from publication PMC11560669 (Angewandte Chemie (International ed. in English), 2024).
Read-outs that look alike come from different tables or passages of the source.

Tests used:
[1] = biological target: MBP-Z(6K); test: cross-linking
[2] = biological target: MBP-Z(6H); test: cross-linking
[3] = biological target: MBP-Z(6Y); test: cross-linking
[4] = biological target: extracellular domain (ECD) of human epidermal growth factor receptor (EGFR) (human) (UniProt P00533); test: cross-linking
[5] = biological target: extracellular domain (ECD) of human epidermal growth factor receptor 2 (HER2) (human) (UniProt P04626); test: cross-linking
[6] = biological target: extracellular domain (ECD) of human epidermal growth factor receptor 2 (HER2) (human) (UniProt P04626); test: cross-linking; remark: listed apart in the source
[7] = biological target: extracellular domain (ECD) of human epidermal growth factor receptor 2 (HER2) (human) (UniProt P04626); test: cross-linking; remark: listed apart in the source
[8] = biological target: extracellular domain (ECD) of human epidermal growth factor receptor 2 (HER2) (Homo sapiens, UniProt P04626); test: ELISA

Zspa affibody Afb(36FSY/F32R) (designed binder)
fold change of cross-linking rate against Afb(36FSY) [1]: 3.4 fold
fold change of cross-linking yield at 16 h against Afb(36FSY) [1]: 2.3 fold
fold change of cross-linking rate against Afb(36FSY) [2]: 3.7 fold
fold change of cross-linking yield at 16 h against Afb(36FSY) [2]: 2.9 fold
fold change of cross-linking rate against Afb(36FSY) [3]: 10.5 fold
fold change of cross-linking yield at 16 h against Afb(36FSY) [3]: 7.9 fold

Zspa affibody Afb(36PFY/F32R) (designed binder)
percent increase of the PFEx cross-linking rate against Afb(36PFY) [2]: 44%
kobs of cross-linking [3]: 0.0218 h⁻¹

covalent NK engager 7D12(Y109FSY/E44R)-C21 (bispecific antibody)
fold change of kobs of cross-linking against 7D12(Y109FSY)-C21 [4]: 2.5 fold

nanobody 2rs15d(D54FSY) (VHH)
kobs of cross-linking [5]: 0.568 h⁻¹

nanobody 2rs15d(D54FSY/D56R) (VHH)
kobs of cross-linking [5]: 1.96 h⁻¹
fold change of kobs of cross-linking against 2rs15d(D54FSY) at pH 6.0 [6]: 10.7 fold
kobs of cross-linking [6]: 0.705 h⁻¹
fold change of kobs of cross-linking against 2rs15d(D54FSY) at pH 6.5 [7]: 6.6 fold
kobs of cross-linking [7]: 0.888 h⁻¹

nanobody 7D12(Y109FFY/E44R) (VHH)
kobs of cross-linking [4]: 0.66 h⁻¹

nanobody 7D12(Y109FSY/E44R) (VHH)
kobs of cross-linking [4]: 0.342 h⁻¹

nanobody 7D12(Y109mFSY/E44R) (VHH)
fold change of kobs of cross-linking against 7D12(Y109mFSY) [4]: 1.9 fold

B1: nanobody 2rs15d(D54Y) with the Arg mutation at G53 (VHH)
VHH: QVQLQESGGGSVQAGGSLKLTCAASGYIFNSCGMGWYRQSPGRERELVSRISRYGDTWHKESVKGRFTISQDNVKKTLYLQMNSLKPEDTAVYFCAVCYNLETYWGQGTQVTVSS
binding result [8]: binds

B2: nanobody 2rs15d(D54Y) with the Arg mutation at G55 (VHH)
VHH: QVQLQESGGGSVQAGGSLKLTCAASGYIFNSCGMGWYRQSPGRERELVSRISGYRDTWHKESVKGRFTISQDNVKKTLYLQMNSLKPEDTAVYFCAVCYNLETYWGQGTQVTVSS
binding result [8]: binds

B3: nanobody 2rs15d(D54Y) with the Arg mutation at D56 (VHH)
VHH: QVQLQESGGGSVQAGGSLKLTCAASGYIFNSCGMGWYRQSPGRERELVSRISGYGRTWHKESVKGRFTISQDNVKKTLYLQMNSLKPEDTAVYFCAVCYNLETYWGQGTQVTVSS
fold decrease of binding affinity against 2rs15d(D54Y) [8]: 14 fold
